Data on 1 molecule can be found in publication PMC10454580, “Exploring the Binding Affinity of the ARR2 GARP DNA Binding Domain via Comparative Methods”.

Holding throughout (conditions): protein: recombinant; tags: N-terminal 8xHis-MBP; label: 5' biotin on antisense strand (DPI-ELISA); 5' Alexa647 on antisense strand (FCS); unlabeled (MST); blunt
For orientation: ELISA stands for enzyme-linked immunosorbent assay.

The target of data set [1] is T1, His8-MBP-GARP2 (ARR2 GARP DNA-binding domain) (UniProt Q9ZWJ9 211-275).
T1 sequence: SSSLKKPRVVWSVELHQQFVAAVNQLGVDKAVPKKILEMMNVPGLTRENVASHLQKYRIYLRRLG
Nature of the data set: MST; thermophoresis 46/3; bounds 192.7-1173.8; MST: PBS-T, 250 nM protein, 25 nM RED-tris-NTA, 40% MST power, 22-26 C; FCS: PBS, 25 C; qDPI-ELISA: TBS/TBS-T (20 mM Tris, 0.18 M NaCl, pH 7.5, 0.1% Tween-20).

Data set [2] has as its target T1, His8-MBP-GARP2 (ARR2 GARP DNA-binding …). Nature of the data set: MST; thermophoresis 43/3; bounds 260.4-960.9; MST: PBS-T, 250 nM protein, 25 nM RED-tris-NTA, 40% MST power, 22-26 C; FCS: PBS, 25 C; qDPI-ELISA: TBS/TBS-T (20 mM Tris, 0.18 M NaCl, pH 7.5, 0.1% Tween-20).
The target is the same in data set [3]. Nature of the data set: MST; thermophoresis 44/3; bounds 229.7-868.7; MST: PBS-T, 250 nM protein, 25 nM RED-tris-NTA, 40% MST power, 22-26 C; FCS: PBS, 25 C; qDPI-ELISA: TBS/TBS-T (20 mM Tris, 0.18 M NaCl, pH 7.5, 0.1% Tween-20).
Data set [4] has the same target. Nature of the data set: MST; thermophoresis 41/3; bounds 250.9-787.3; MST: PBS-T, 250 nM protein, 25 nM RED-tris-NTA, 40% MST power, 22-26 C; FCS: PBS, 25 C; qDPI-ELISA: TBS/TBS-T (20 mM Tris, 0.18 M NaCl, pH 7.5, 0.1% Tween-20).
For data set [5] the target is unchanged. Nature of the data set: MST; back diffusion 8/7; bounds 61.0-374.4; MST: PBS-T, 250 nM protein, 25 nM RED-tris-NTA, 40% MST power, 22-26 C; FCS: PBS, 25 C; qDPI-ELISA: TBS/TBS-T (20 mM Tris, 0.18 M NaCl, pH 7.5, 0.1% Tween-20).
For data set [6] the target is unchanged. Nature of the data set: MST; thermophoresis 48/3; bounds 240.8-1742.8; MST: PBS-T, 250 nM protein, 25 nM RED-tris-NTA, 40% MST power, 22-26 C; FCS: PBS, 25 C; qDPI-ELISA: TBS/TBS-T (20 mM Tris, 0.18 M NaCl, pH 7.5, 0.1% Tween-20).
The target is the same in data set [7]. Nature of the data set: MST; thermophoresis 45/3; bounds 218.2-1077.2; MST: PBS-T, 250 nM protein, 25 nM RED-tris-NTA, 40% MST power, 22-26 C; FCS: PBS, 25 C; qDPI-ELISA: TBS/TBS-T (20 mM Tris, 0.18 M NaCl, pH 7.5, 0.1% Tween-20).
The target is the same in data set [8]. Nature of the data set: MST; thermophoresis 410/3; bounds 211.1-2267.5; MST: PBS-T, 250 nM protein, 25 nM RED-tris-NTA, 40% MST power, 22-26 C; FCS: PBS, 25 C; qDPI-ELISA: TBS/TBS-T (20 mM Tris, 0.18 M NaCl, pH 7.5, 0.1% Tween-20).
For data set [9] the target is unchanged. Nature of the data set: MST; T-jump region 2/1; ESP bounds 33.9-203.5; MST: PBS-T, 250 nM protein, 25 nM RED-tris-NTA, 40% MST power, 22-26 C; FCS: PBS, 25 C; qDPI-ELISA: TBS/TBS-T (20 mM Tris, 0.18 M NaCl, pH 7.5, 0.1% Tween-20).
Data set [10] has the same target. Nature of the data set: MST; inverse T-jump 6/5; bounds 471.3-1412.8; MST: PBS-T, 250 nM protein, 25 nM RED-tris-NTA, 40% MST power, 22-26 C; FCS: PBS, 25 C; qDPI-ELISA: TBS/TBS-T (20 mM Tris, 0.18 M NaCl, pH 7.5, 0.1% Tween-20).
Data set [11] shares this target. Nature of the data set: MST; thermophoresis 42/3; bounds 259.5-988.2; MST: PBS-T, 250 nM protein, 25 nM RED-tris-NTA, 40% MST power, 22-26 C; FCS: PBS, 25 C; qDPI-ELISA: TBS/TBS-T (20 mM Tris, 0.18 M NaCl, pH 7.5, 0.1% Tween-20).
Data set [12] has the same target. Nature of the data set: MST; thermophoresis 49/3; bounds 200.6-1912.2; MST: PBS-T, 250 nM protein, 25 nM RED-tris-NTA, 40% MST power, 22-26 C; FCS: PBS, 25 C; qDPI-ELISA: TBS/TBS-T (20 mM Tris, 0.18 M NaCl, pH 7.5, 0.1% Tween-20).
The target is the same in data set [13]. Nature of the data set: MST; thermophoresis 47/3; bounds 202.0-1474.6; MST: PBS-T, 250 nM protein, 25 nM RED-tris-NTA, 40% MST power, 22-26 C; FCS: PBS, 25 C; qDPI-ELISA: TBS/TBS-T (20 mM Tris, 0.18 M NaCl, pH 7.5, 0.1% Tween-20).

B1: wtOligo (ARR5 promoter fragment) (dsDNA)
DNA 1: TTAACAATCTCAAAGATTTTGTAGATTGAAATACAAATCTTCTCT
DNA 2: AGAGAAGATTTGTATTTCAATCTACAAAATCTTTGAGATTGTTAA
What is called Kd is the free concentration of one partner at which half of the binding sites on the other are occupied at equilibrium, for simple one-to-one binding. B1: the Kd in data set [1] came out at 506 ± 246 nM; in [2], 520 ± 172 nM; in data set [3], 462 ± 163 nM; in data set [4], 456 ± 132 nM; in [5], 166 ± 74.3 nM; in data set [6], 679 ± 376 nM. The Kd came out at 510 ± 212 nM in data set [7]; 738 ± 505 nM in data set [8]; 93.3 ± 40.3 nM in data set [9]; 826 ± 222 nM in [10]; 526 ± 178 nM in data set [11]; 660 ± 419 nM in data set [12]. The Kd in data set [13] was 578 ± 317 nM.
